Biological target: T1, full-length HDM2 (NP_002383.2) (human, UniProt Q00987-11 1-497, limits assumed)
T1 construct: it was coated on the ELISA plate at 20 ug/ml; also called full-length MDM2
Assay: ELISA; full-length HDM2 coated on plate, GST fusion at 0-5.5 uM, anti-GST-HRP detection (FIG. 4)
Protocol: The well was incubated overnight at 4° C. Thereafter, bindings between other proteins were blocked with 300 ul of 3% skim milk w/PBS-T (at room temperature for 3 hours).
One hour after, the plate was washed with 300 uL of PBS-T, and treated with 100 uL of HRP conjugated-anti-GST antibody (Abcam, 1:2000). After the reaction at room temperature for one hour, the plate was treated with TMB substrate (Pierce, 100 uL) and left for 5 minute until coloring reaction occur, and then, treated with stop solution (Pierce, 100 uL). Thereafter, absorbance at 450 nm was measured using microwell reader (Molecular Device, 340PC384).

T1 sequence (Q00987 other isoform, or with tags, fused parts or gaps limits assumed): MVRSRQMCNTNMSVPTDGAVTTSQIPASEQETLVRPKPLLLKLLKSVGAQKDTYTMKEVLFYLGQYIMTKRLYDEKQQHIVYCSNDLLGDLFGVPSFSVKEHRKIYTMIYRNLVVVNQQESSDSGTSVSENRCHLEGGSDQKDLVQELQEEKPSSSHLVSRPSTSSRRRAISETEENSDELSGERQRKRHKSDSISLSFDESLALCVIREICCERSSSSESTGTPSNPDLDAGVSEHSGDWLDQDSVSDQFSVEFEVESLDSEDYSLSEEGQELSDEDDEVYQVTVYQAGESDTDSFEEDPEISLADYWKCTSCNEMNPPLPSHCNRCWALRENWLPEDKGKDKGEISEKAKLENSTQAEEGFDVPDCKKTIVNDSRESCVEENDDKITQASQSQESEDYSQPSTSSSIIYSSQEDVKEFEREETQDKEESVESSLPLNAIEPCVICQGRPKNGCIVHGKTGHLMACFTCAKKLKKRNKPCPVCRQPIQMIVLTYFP

| binding result | Binder |
| --- | --- |
| binds | GST-M25 (modified three-helix bundle protein M25, an a3D variant, fused to GST) (designed binder, Tested as a GST fusion in ELISA and detected with an HRP-conjugated anti-GST antibody; GST is placed at the N-terminus from the name GST-M25 and the pGEX vector; not shown: GST carrier (from the GST cds of pGEX-4T3, GE Healthcare) and the vector junction between GST and M25) MGSWFEFAWRLLEIKTRLQALGGSEAELAAFEKEIAAFESELQAYKGKGNPEVEALRFEAYWIRLELQAYRHN |
| binds | GST-M11 (modified three-helix bundle protein M11, an a3D variant, fused to GST) (designed binder, Tested as a GST fusion in ELISA and detected with an HRP-conjugated anti-GST antibody; GST is placed at the N-terminus from the name GST-M11 and the pGEX vector; not shown: GST carrier (from the GST cds of pGEX-4T3, GE Healthcare) and the vector junction between GST and M11) MGSWAEFSQRLFAIYWRLLALGGSEAELAAFEKEIAAFESELQAYKGKGNPEVEALRKEAAAIRDELQAYRHN |

— US20160311878A1 (SAMSUNG ELECTRONICS, published 2016)
